Tests used:
Assay in all cases: cell_activity
Details in all cases: pair value
[1] = tested on: VInv_T03 TALE-nuclease right monomer (synthetic construct)
[2] = tested on: VInv_T01 TALE-nuclease left monomer (synthetic construct)
[3] = tested on: VInv_T03 TALE-nuclease left monomer (synthetic construct)
[4] = tested on: VInv_T01 TALE-nuclease right monomer (synthetic construct)
[5] = tested on: VInv_T02 TALE-nuclease right monomer (synthetic construct)
[6] = tested on: VInv_T02 TALE-nuclease left monomer (synthetic construct)
[7] = S. tuberosum protoplasts, text p49 gives range up to 9.5%
[8] = yeast beta-galactosidase assay 37 C, 0.82 at 30 C
[9] = S. tuberosum protoplasts, endogenous locus
[10] = yeast beta-galactosidase assay 37 C, 0.95 at 30 C
[11] = yeast beta-galactosidase assay 37 C, 0.89 at 30 C

Sequence: CCGGACTTGCAGAGTAA (double strand) [VInv_T3 right half-site]
- activity [1, 7]: 9.9 % NHEJ
- activity (relative to I-SceI) [1, 8]: 0.96

Sequence: TTCCTCCCGGATCAACC (double strand) [VInv_T1 left half-site]
- activity [2, 9]: 3.6 % NHEJ
- activity (relative to I-SceI) [2, 10]: 0.94

Sequence: TAGCCTTCTTTCCGATC (double strand) [VInv_T3 left half-site]
- activity [3, 7]: 9.9 % NHEJ
- activity (relative to I-SceI) [3, 8]: 0.96

Sequence: GAAGTCCCTTAAAATCA (double strand) [VInv_T1 right half-site]
- activity [4, 9]: 3.6 % NHEJ
- activity (relative to I-SceI) [4, 10]: 0.94

Sequence: CTTCTTTCCGATCCTCA (double strand) [VInv_T2 right half-site]
- activity [5, 9]: 9.5 % NHEJ
- activity (relative to I-SceI) [5, 11]: 0.92

Sequence: TTCCTCTCCTCTTTCCT (double strand) [VInv_T2 left half-site]
- activity [6, 9]: 9.5 % NHEJ
- activity (relative to I-SceI) [6, 11]: 0.92
